From publication PMC3089468 (Nucleic Acids Research, 2011)

Assays:
Assay in all cases: two-hybrid
λCI_Arnt362 M267K = λCI_Arnt362 M267K (human, UniProt P27540 1-362, M267K)
λCI_Arnt362 A339D = λCI_Arnt362 A339D (human, UniProt P27540 1-362, A339D)
λCI_Arnt362 V306D = λCI_Arnt362 V306D (human, UniProt P27540 1-362, V306D)
λCI_Arnt362 C265R = λCI_Arnt362 C265R (human, UniProt P27540 1-362, C265R)
λCI_Arnt362 L221H = λCI_Arnt362 L221H (human, UniProt P27540 1-362, L221H)
λCI_Arnt362 C308R = λCI_Arnt362 C308R (human, UniProt P27540 1-362, C308R)
λCI_Arnt362 G341D = λCI_Arnt362 G341D (human, UniProt P27540 1-362, G341D)
Sequence of λCI_Arnt362 G341D (P27540 1-362 G341D): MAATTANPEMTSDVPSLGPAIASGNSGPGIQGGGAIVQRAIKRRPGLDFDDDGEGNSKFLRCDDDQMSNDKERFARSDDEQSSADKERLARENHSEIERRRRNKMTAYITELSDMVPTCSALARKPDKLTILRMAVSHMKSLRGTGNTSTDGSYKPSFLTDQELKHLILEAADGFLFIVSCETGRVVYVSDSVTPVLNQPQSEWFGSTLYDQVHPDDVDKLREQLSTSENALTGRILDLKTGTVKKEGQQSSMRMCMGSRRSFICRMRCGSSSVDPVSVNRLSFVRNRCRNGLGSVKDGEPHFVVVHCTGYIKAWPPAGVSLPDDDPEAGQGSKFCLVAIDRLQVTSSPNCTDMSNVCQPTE

Sequence of λCI_Arnt362 C308R (P27540 1-362 C308R): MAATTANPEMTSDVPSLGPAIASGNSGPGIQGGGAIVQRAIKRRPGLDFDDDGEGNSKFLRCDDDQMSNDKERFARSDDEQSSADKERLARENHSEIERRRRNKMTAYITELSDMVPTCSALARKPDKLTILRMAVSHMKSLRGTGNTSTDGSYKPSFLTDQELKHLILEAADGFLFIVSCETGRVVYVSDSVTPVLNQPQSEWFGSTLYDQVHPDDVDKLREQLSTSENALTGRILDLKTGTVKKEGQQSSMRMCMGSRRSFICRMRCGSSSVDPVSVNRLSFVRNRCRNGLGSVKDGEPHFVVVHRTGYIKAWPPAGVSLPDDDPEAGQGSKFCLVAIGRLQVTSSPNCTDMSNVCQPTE
Sequence of λCI_Arnt362 V306D (P27540 1-362 V306D): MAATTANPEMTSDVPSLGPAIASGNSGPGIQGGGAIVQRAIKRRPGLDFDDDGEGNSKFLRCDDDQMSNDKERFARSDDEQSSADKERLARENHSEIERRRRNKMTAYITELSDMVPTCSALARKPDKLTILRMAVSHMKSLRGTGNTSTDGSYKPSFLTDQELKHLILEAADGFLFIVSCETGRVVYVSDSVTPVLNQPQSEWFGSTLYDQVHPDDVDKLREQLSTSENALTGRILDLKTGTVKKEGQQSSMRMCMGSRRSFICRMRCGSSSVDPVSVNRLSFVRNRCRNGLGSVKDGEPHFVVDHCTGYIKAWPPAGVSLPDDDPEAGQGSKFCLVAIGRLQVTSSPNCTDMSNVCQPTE
Sequence of λCI_Arnt362 M267K (P27540 1-362 M267K): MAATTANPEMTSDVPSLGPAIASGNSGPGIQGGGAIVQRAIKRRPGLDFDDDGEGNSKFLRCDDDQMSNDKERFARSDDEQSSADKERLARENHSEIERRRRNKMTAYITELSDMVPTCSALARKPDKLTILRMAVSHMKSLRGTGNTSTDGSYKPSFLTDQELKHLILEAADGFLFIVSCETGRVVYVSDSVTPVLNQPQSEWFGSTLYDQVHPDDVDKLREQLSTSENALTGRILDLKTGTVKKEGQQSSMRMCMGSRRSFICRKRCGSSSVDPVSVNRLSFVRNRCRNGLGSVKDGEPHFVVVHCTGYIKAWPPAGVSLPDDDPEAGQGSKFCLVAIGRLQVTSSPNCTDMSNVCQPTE
Sequence of λCI_Arnt362 A339D (P27540 1-362 A339D): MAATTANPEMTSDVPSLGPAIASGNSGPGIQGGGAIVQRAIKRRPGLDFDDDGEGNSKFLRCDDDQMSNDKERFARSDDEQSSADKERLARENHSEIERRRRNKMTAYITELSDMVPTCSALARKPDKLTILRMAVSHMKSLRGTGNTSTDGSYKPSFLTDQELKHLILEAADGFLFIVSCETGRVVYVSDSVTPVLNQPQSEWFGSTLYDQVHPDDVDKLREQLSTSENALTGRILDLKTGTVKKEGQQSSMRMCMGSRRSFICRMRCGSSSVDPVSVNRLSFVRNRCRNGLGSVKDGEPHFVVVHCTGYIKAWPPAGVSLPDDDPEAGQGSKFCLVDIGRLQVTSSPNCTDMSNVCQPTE
Sequence of λCI_Arnt362 L221H (P27540 1-362 L221H): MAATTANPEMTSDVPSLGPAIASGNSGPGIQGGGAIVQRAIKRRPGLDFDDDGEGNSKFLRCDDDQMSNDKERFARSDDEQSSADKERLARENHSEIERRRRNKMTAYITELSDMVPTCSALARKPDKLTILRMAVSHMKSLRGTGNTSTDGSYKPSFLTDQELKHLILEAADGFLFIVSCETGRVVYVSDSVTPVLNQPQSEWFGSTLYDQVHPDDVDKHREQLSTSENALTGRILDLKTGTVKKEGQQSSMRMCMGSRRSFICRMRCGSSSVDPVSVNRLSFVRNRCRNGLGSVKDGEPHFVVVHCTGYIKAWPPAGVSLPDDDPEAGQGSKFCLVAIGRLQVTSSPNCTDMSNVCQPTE
Sequence of λCI_Arnt362 C265R (P27540 1-362 C265R): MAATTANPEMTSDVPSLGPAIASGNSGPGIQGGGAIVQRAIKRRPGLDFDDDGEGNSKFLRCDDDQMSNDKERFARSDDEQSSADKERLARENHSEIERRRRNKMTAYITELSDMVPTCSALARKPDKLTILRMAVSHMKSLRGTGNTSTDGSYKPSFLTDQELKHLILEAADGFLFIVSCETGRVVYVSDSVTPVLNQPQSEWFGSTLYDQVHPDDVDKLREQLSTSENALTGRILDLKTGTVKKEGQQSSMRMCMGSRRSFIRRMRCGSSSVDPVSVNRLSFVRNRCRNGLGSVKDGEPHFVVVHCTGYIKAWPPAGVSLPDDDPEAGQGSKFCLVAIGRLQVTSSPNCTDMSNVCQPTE

B1: RNAPα_AhR278 (domain or fragment, mouse, UniProt P30561 1-278, looked up)
chain: MSSGANITYASRKRRKPVQKTVKPIPAEGIKSNPSKRHRDRLNTELDRLASLLPFPQDVINKLDKLSVLRLSVSYLRAKSFFDVALKSTPADRNGGQDQCRAQIRDWQDLQEGEFLLQALNGFVLVVTADALVFYASSTIQDYLGFQQSDVIHQSVYELIHTEDRAEFQRQLHWALNPDSAQGVDEAHGPPQAAVYYTPDQLPPENASFMERCFRCRLRCLLDNSSGFLAMNFQGRLKYLHGQNKKGKDGALLPPQLALFAIATPLQPPSILEIRTKN
λCI_Arnt362 M267K
  β-gal activity relative to wt: < 60 % of wt β-gal activity
λCI_Arnt362 A339D
  β-gal activity relative to wt: < 60 % of wt β-gal activity
λCI_Arnt362 V306D
  β-gal activity relative to wt: < 60 % of wt β-gal activity
λCI_Arnt362 C265R
  β-gal activity relative to wt: < 60 % of wt β-gal activity
λCI_Arnt362 L221H
  β-gal activity relative to wt: < 60 % of wt β-gal activity
λCI_Arnt362 C308R
  β-gal activity relative to wt: < 60 % of wt β-gal activity
λCI_Arnt362 G341D
  β-gal activity relative to wt: 47 % of wt activity
